Results taken from patent US20100075374A1, “Methods for capturing nascent proteins” (AMBERGEN, INC., priority 2007, published 2010).
Each block holds one compound with its values, some of them ahead of it.

Experiments:
PKCα = biological target: T1, PKCα (Homo sapiens, UniProt P17252); test: PMA mediated PKCα sub-cellular translocation measured by kinase activity after photocleavable antibody isolation; type: cell-based; settings: HeLa cells, 200 nM PMA for 5 min, n=4
T1 construct: isolate and photo-release endogenous PKCa from the undiluted detergent fractionated HeLa cell extracts; endogenous in cells; host or cells: HeLa cells (ATCC)
Experimental: Cultured HeLa cells (ATCC; Manassas, Va.) were stimulated for 5 min with 200 nM Phorbol-12-Myristate-13-Acetate (PMA; EMD Biosciences, Inc., San Diego, Calif.) and subsequently detergent fractionated into sub-cellular compartments according to reported procedures [Ramsby et al. (1994) Electrophoresis 15, 265-277; Ramsby & Makowski. (1999) Methods Mol Biol 112, 53-66; Chiang et al. (2000) J Biochem Biophys Methods 46, 53-68]. PMA is a potent activator of PKCα and is well known to cause translocation of the kinase from the cytosolic to the membrane sub-cellular compartments [Ross & Joyner. (1997) Endothelium 5, 321-332; Bazan & Rapoport. (1996) JPharmacol Toxicol Methods 36, 87-95; Yazlovitskaya & Melnykovych. (1995) Cancer Lett 88, 179-183].
A photocleavable antibody conjugated solid affinity matrix was prepared and used to isolate and photo-release the antigen into solution essentially as described in Example 2 except that in this case, a photocleavable anti-IgG secondary antibody was used to immobilize the unlabeled primary antibody onto the solid affinity matrix. This antibody affinity matrix was used to isolate and photo-release endogenous PKCa from the undiluted detergent fractionated HeLa cell extracts. […]

[1] = biological target: T2, human recombinant Src pp^60 tyrosine kinase (Homo sapiens, UniProt P12931); test: kinase substrate profiling on photo-transferred proteins, phosphotyrosine detection; type: biochemical; settings: plus ATP kinase reaction, 30 min at 37° C.
T2 construct: purchased Invitrogen Corporation

[2] = biological target: T3, human recombinant ZAP-70 tyrosine kinase (Homo sapiens, UniProt P43403); test: as above; type: biochemical; settings: plus ATP kinase reaction, 30 min at 37° C.
T3 construct: purchased Invitrogen Corporation
T3 sequence (P43403 1-619): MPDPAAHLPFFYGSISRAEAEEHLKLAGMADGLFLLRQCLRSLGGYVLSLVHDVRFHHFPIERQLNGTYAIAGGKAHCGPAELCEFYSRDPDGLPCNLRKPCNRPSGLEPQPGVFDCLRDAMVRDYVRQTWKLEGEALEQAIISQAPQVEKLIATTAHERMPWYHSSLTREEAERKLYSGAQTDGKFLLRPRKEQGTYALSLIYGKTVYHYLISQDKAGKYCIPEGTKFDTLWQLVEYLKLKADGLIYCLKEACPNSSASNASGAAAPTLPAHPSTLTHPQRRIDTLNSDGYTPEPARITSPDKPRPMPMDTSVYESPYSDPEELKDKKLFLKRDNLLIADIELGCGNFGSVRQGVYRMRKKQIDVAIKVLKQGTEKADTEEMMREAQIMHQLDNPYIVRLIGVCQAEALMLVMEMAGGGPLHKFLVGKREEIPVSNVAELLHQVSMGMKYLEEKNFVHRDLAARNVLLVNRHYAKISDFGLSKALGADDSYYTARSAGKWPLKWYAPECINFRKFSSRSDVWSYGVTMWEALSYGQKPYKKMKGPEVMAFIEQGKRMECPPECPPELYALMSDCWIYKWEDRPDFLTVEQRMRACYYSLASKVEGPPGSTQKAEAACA

MDM2 bait = biological target: T4, MDM2 bait (Homo sapiens, UniProt Q00987); test: p53-MDM interaction assay, pre-formed complexes of cell-free expressed proteins, contact photo-transfer; type: binding; settings: complexes formed before contact photo-transfer
T4 construct: made in house; host or cells: rabbit reticulocyte lysate, coupled cell-free transcription/translation
Experimental: BODIPY-FL-tRNA^COMPLETE was used for fluorescence labeling (at 2 μM) instead of BODIPY-FL-tRNA^Lys. The cell-free expressed p53 “probe” was labeled only with BODIPY-FL using the BODIPY-FL-tRNA^COMPLETE and was not labeled with PC-biotin in any way. […] The “bait” proteins were labeled only with PC-Biotin-tRNA^COMPLETE (at 1 μM) and not with BODIPY-FL in any way. The Translation Dilution Buffer (TDB) used to stop the reaction and prepare the sample contained no BSA or other protein carrier, 10 mM DTT instead of 2 mM and additionally contained 20 mM EDTA added from a 500 mM pH 8.0 stock and 4 mM cycloheximide (Sigma-Aldrich, St. Louis, Mo.) added from a 355 mM stock in DMSO.
All steps were performed at +4° C. or on an ice water bath and all reagents and samples were also kept under these conditions during the procedure. […] To facilitate addition of small bead volumes to the samples, the beads were initially prepared to a 10% (v/v) bead suspension with 5 mM DTT in PBS. The samples, now 80 μL each, were then mixed with 10 μL of the 10% (v/v) bead suspension corresponding to addition of 1 μL packed bead volume. After capture on the NeutrAvidin beads for 1 hr, beads were washed by mixing 3× briefly (briefly=5 sec vortex mix) in 400 bead volumes per wash of PBS pH 7.5 and 5 mM DTT. […]

T4 sequence (Q00987 whole entry): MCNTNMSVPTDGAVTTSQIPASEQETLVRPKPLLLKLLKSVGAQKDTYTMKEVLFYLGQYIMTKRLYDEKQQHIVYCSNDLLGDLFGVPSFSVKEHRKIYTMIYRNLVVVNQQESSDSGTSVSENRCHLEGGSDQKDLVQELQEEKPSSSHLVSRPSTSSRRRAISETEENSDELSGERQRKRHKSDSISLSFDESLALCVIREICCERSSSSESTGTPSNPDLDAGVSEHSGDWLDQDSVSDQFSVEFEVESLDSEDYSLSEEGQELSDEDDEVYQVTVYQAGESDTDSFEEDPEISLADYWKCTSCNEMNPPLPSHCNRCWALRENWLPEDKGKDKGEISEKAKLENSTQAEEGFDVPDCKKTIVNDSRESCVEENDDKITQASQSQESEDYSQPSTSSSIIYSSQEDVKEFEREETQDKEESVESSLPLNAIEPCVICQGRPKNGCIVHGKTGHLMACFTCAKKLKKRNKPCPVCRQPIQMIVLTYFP

Compound: CCCCCCCCCCCCCC(=O)O[C@@H]1[C@@H](C)[C@@]2(O)[C@@H](C=C(CO)C[C@]3(O)C(=O)C(C)=C[C@@H]23)[C@@H]2C(C)(C)[C@]12OC(C)=O [PMA, Phorbol-12-Myristate-13-Acetate]
PKCα distribution, membrane, based on kinase activity (PKCα; baseline 21±2% membrane): 84±3%
PKCα distribution, cytosol, based on kinase activity (PKCα; baseline 79±7% cytosol): 16±4%

phosphorylation by Src pp^60 [1]: significant phosphorylation
phosphorylation by ZAP-70 [2]: does not phosphorylate
Compound: CK: cell-free expressed human casein kinase II, contact photo-transferred to microarray

binding of cell-free expressed p53 probe to MDM bait (MDM2 bait): selective binding
Compound: p53 “probe”: cell-free expressed human p53 labeled only with BODIPY-FL using BODIPY-FL-tRNA COMPLETE
